Laboratory results: patent US20260201035A1 (published 2026)

Columns and labels:
Experiment in all cases: fluorescence microscopy, LentiX cells co-expressing Lck (FIG. 38)
[1] = target: T1, GFP-tagged PD1, F223/Y248 PD1 (UniProt Q15116 25-288)
T1 construct: whole, on cells; In LentiX cells co-expressing Lck; not shown: GFP tag

[2] = target: T2, GFP-tagged PD1, F223/F248 PD1 (UniProt Q15116 25-288)
T2 construct: whole, on cells; In LentiX cells co-expressing Lck; not shown: GFP tag

[3] = target: T3, GFP-tagged PD1, Y223/F248 PD1 (UniProt Q15116 25-288)
T3 construct: whole, on cells; In LentiX cells co-expressing Lck; not shown: GFP tag

[4] = target: T4, GFP-tagged PD1, wildtype PD1 (Y223/Y248) (UniProt Q15116 25-288, tyrosine phosphorylation by co-expressed Lck (implied, not measured in this experiment))
T4 construct: whole, on cells; In LentiX cells co-expressing Lck; not shown: GFP tag

Measured: binding result

B1: mCherry-tagged Binder-NT7 (designed binder)
chain: ERFDSLTDLVEHYKKNPMVETLGTVLQLKQPLGGSGGGWFHGHLSGKEAEKLLTEKGKHGSFLVRESQSHPGDFVLSVRTGDDKGESNDGKSKVTHVMIRCQELKYDVGGGGGSQLQESGGGLVQAGGSLRLSCAASGYIFSRWYMGWYRQAPGKEREFVAGIDQGSITYYADSVKGRFTISRDNAKNTVYLQMNSLKPEDTAVYYCAAVAWAGYPWYYKHAYWGQGTQVTVSS
notes: Expressed in LentiX cells co-expressing Lck; not shown: mCherry tag
binds: all assays above
